Test results as given in patent publication US6867008 (NEW ENGLAND MEDICAL CENTER HOSPITALS, dated 2005).

Assays:
[1] = target: T1, hERα/BD (human estrogen receptor alpha fused to the Gal4 DNA binding domain) (human, UniProt P04386 1-147; P03372 1-595); assay: yeast two-hybrid
T1 construct: also called ERα/GalBD; hERα/GalBD
Source text: Screening of the ovine library yielded clone EC1. […] Yeast strain Y190 was transformed with mERβ/BD in combination with EC1/AD and GalAD respectively and plated on Sc-His (synthetic complete medium, minus histidine) and YPD (yeast extract, peptone, dextrose) plates (FIG. 1A). […] Yeast strain Y190 was also transformed with human ER alpha (hERα)/BD in combination with EC1/AD, hERα/BD and Trip 1/AD and plated on Sc-His and YPD plates. Positive interaction of hERα/BD with […] and Trip 1/GalAD was seen only in the presence of estrogen. Colony lift β-Galactosidase assays were also performed with yeasts from the YPD plate in both FIG. 1A and 1B. TIF2 and TRIP1 homologs were found previously by screening a human heart library with mERβ as bait. […] This implies a new function for ER beta that may be separated from its estrogen binding function.

mERβ1-622/GalBD = target: T2, mERβ1-622/GalBD (mouse, UniProt P04386 1-147; O08537 46-252); assay: yeast two-hybrid, HIS and β-galactosidase reporters
T2 construct: about the first 207 codons of the short variant ORF (my reading)

mERβ1-516/GalBD = target: T3, mERβ1-516/GalBD (mouse, UniProt P04386 1-147; O08537 46-217); assay: as above
T3 construct: Expression in Y190 confirmed by Western blot

[2] = target: T4, [35S]hERα (in vitro translated human estrogen receptor alpha) (human, UniProt P03372 1-595, [35S]methionine labelled); assay: GST pull-down, SDS-PAGE and autoradiography
T4 construct: also called [^35S] labeled hERα; ER alpha
T4 sequence (looked up): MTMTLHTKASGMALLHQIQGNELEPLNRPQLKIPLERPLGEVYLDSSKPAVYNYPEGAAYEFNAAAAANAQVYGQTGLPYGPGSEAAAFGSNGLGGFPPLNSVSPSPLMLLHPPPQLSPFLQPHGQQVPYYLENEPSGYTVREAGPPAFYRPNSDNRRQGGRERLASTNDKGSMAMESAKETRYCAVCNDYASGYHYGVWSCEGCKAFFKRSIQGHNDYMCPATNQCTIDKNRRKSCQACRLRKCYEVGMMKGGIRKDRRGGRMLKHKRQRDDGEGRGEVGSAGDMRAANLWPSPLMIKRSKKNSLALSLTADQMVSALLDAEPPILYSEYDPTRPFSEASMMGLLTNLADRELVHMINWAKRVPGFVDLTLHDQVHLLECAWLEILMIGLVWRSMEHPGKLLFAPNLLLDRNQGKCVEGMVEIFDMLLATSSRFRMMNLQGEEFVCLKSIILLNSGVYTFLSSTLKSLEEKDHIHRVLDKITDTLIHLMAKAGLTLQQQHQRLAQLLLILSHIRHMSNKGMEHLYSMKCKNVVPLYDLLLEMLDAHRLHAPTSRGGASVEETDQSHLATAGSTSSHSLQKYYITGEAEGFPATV
Description: Recombinant proteins were incubated at 4° in suspension buffer (20 mM Tris pH7.4, 137 mM NaCl, 2 mM EDTA pH7.4, 1% TritonX-100, 10% Glycerol, 25 mM β-glycerolphosphate, 1 mM Na vanadate, […], 1 mM PMSF) with either one of the GST fusion proteins immobilized on glutathione-Sepharose beads for 1 hour. Beads were then washed three times in suspension buffer, boiled 5 minutes in SDS sample buffer, and associated proteins resolved by SDS-PAGE. Labeled protein bands in gels were then visualized by autoradiography.
[^35S] labeled mERβ was incubated with GST-beads (Lane 2) and GST-EC1 beads (Lane 3) followed by SDS-PAGE and autoradiography. […] In the complementary experiment (FIG. 4B), [^35S]-labeled hsMAD2 was incubated with GST beads (Lane 2) and GST-mERP beads (Lane 3) followed by SDS-PAGE and autoradiography. […] MAD2 input (FIG. 4B). GST-fusion protein interaction studies were also done with hERα. [^35S] labeled hERα was incubated with GST-mERβ (Lane 2, positive control), GST-beads (Lane 3) and GST-EC1 beads followed by SDS-PAGE and autoradiography.

B1: EC1/AD (ovine clone EC1, MAD2 homolog, fused to the Gal4 activating domain, vector pGAD10) (other, not shown: large carriers)
chain: REQGITLRGSAEIVAEFFSFGINSILYQRGIYPSETFTRVQKYGLTLLVTTDPELIKYLNNVVDQLKEWLYKCSVQKLVVVISNIESGEVLERWQFDIECDKTAKDDSAPREKSQKAIQDEIRSVIRQITATVTFLPLLEVSCSFDLLIYTDKDLVVPEKWEESGPQFITNSEEVRLRSFTTTIHKVNSMVAYKIPVHD
notes: Library clone from ovine pulmonary artery endothelial cells; also called EC1/GalAD
- binding result [1]: no binding
- binding result (mERβ1-622/GalBD): binds
- binding result (mERβ1-516/GalBD): no binding

B2: GST-EC1 (other)
chain: REQGITLRGSAEIVAEFFSFGINSILYQRGIYPSETFTRVQKYGLTLLVTTDPELIKYLNNVVDQLKEWLYKCSVQKLVVVISNIESGEVLERWQFDIECDKTAKDDSAPREKSQKAIQDEIRSVIRQITATVTFLPLLEVSCSFDLLIYTDKDLVVPEKWEESGPQFITNSEEVRLRSFTTTIHKVNSMVAYKIPVHD
notes: Immobilised on glutathione-Sepharose beads; also called GST-MAD2 clone; GST MAD2; not shown: glutathione S-transferase of vector pGEX-4T-1
- binding result [2]: no binding
